Measurements published in paper PMC6546359.

T1: CsrA-Strep (Bacillus subtilis, UniProt P33911 1-74)
T1 sequence: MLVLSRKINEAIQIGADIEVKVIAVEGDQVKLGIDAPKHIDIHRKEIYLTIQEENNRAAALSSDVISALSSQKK

B1: RnaC (structured_RNA)
RNA: UAAGGCCGGCGCGAUACUCCCUAUAACAUCCUUUUCAGUAGAUUUCAUUAUCGUGCCGGUUUUCUCAUAUGCAAAGCAAUCCCGCCAAUCAGAUUGGCGGGGAUUUUAUAUUU
B2: RoxS (structured_RNA)
RNA: GUGAAAUUGAUCACAAACAAACAUUACCCCUUUGUUUGACCGUGAAAAUUUCUCCCAUCCCCUUUGUUGUCGUUAAGACAUAUGAAACCGCGCUUAUCCCGGCGCGGUUUCUUU
B3: FsrA (structured_RNA)
RNA: AUAGAGAGAAGCUACUCUCUGUUCCCCAACCCCUCUAUCAGAUCAAGAUCCGGAAAAAACUUGGCGCUACCCCCGCCAAGUUUUU

The binders below were run against T1, CsrA-Strep (assay: EMSA).

Binding result, no binding:
B1, B2, B3
